Data: PMC11995267
Changes are numbered by the printed parent chain. Numbers in names are those of the source.

T1: GST-tagged first WD40 domain of Elp1, Q06706
T1 chain: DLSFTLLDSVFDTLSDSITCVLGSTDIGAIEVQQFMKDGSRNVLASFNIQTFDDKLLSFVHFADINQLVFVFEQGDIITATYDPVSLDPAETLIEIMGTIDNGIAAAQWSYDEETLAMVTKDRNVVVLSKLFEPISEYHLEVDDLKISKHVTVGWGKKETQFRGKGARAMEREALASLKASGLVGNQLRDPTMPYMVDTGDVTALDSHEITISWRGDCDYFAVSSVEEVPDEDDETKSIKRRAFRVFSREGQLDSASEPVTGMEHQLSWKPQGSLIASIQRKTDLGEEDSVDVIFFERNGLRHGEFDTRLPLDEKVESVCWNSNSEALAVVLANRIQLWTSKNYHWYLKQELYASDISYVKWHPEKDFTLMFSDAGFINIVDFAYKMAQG

B1: recombinant Kti12 (wild type), His-tagged, P34253 K225A; K228A; K235A; R281A; K283A; R284A; K291A (protein)
chain: MPLVLFTGYPCSGKTTLAKHLVQLLQSKIDATPSLSKYSITYHSDESLGIKHSDYITSQDERKLRSEIISAVKRDLSKNKIVIVDSLNYIKGFRYQLHCEVKNLSTTFCVIQTLCPPETIFEWNKTSNPNPWEPELLNQLIQRYEEPNSSNRWDSPLFAILTPQDNITDYIDDICKVVFQTSKSAKNSGHNDPLSKGLQKPNSATVLKPASQSNFIQVLDIETSAIIATIMNHIASLTSIGGVSNGTRVIVSEGITDINDDGCFFVDLPIGNVVTLAQLQALAAQFINFNALRDIDQDRIGPLFADYLNKNLN
B2: recombinant Kti12 (wild type), His-tagged, P34253 K225A; K228A; K235A (protein)
chain: B1 chain with A281R, A283K, A284R, A291K

Molecular target: T1, GST-tagged first WD40 domain of Elp1, …
Assay: GST pull-down, quantified from Coomassie SDS-PAGE
Settings: chain shown with the change;; parent: est. 1.0; read off a plot

| Binder | ratio to parent |
| --- | --- |
| B1 | 0.11 |
| B2 | 0.67 |
